Laboratory results reported in patent US5262318.

Test system: SphI restriction endonuclease (recombinant, NEB#808 / pEGsph50-2; gene within SEQ ID NO:2) (Streptomyces phaeochromogenes)
Assay: cleavage_in_vitro
Conditions: 150 units, 4 h, 37 C; nonspecific endonuclease control

phiX174 RFI DNA
activity (% converted to RF II): < 25
